Several values for one entry are separate records, joined by “and”; a condition that tells them apart may be missing. Equal entries are not always repeated.

Experiment [1] concerns the target T1, human CD28 (human, UniProt P10747 19-220).
T1 construct: whole, on cells
Description: flow cytometry, CD28-transfected cells. (In general: A flow cytometer gives signals particle by particle.)

For experiment [2], the target named is T1, human CD28. Description: flow cytometry, transfected cells; protein from CHO.
The target in experiment [3] is T2, human ICOS (human, UniProt Q9Y6W8 21-199).
T2 construct: whole, on cells
T2 sequence (looked up): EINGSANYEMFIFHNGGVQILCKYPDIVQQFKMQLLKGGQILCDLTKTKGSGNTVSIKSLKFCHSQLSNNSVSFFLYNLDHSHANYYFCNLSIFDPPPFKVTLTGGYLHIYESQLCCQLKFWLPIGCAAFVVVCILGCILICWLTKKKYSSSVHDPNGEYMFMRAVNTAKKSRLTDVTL
The experiment is described as above.

For experiment [4], the target named is T3, human CTLA-4 (human, UniProt P16410 36-223).
T3 construct: whole, on cells
The description is as above.

Experiment [5] concerns the target T1, human CD28. Description: flow cytometry, transfected cells; protein from 293.
The target of experiment [6] is T2, human ICOS. The description is as above.
For experiment [7], the target named is T3, human CTLA-4. The description is as above.
The target in experiment [8] is T1, human CD28. The experiment in a line: flow cytometry, transfected cells; protein from CHO. This is another data set of the same source.
The target of experiment [9] is T2, human ICOS. Described as above. This is another data set of the same source.
In experiment [10] the target is T3, human CTLA-4. The experiment is described as above. The source holds these as a separate data set.

T3 sequence (P16410 36-223): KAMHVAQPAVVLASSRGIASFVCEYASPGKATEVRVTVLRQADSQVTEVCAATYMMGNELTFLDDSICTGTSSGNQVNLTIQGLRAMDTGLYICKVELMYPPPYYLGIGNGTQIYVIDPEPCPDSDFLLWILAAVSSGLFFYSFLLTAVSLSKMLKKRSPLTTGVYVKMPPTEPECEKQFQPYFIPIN

As to “ICOSL F27S/N52H/N57Y/V110N ECD-Fc (Fc fusion)”, in the experiment with human CD28 [1], the MFI is 8610 MFI and 4160 MFI; the parental ratio of MFI is 1.92 fold vs WT and 0.93 fold vs WT.

For “ICOSL T43A/N52H/N57Y/L74Q/D89G/V110D/F172S ECD-Fc (Fc fusion)”, the parental ratio of MFI in the experiment with human CD28 [1] was determined as 0.49 fold vs WT.

For the molecule “ICOSL N52H/N57Y/Q100R/V110D/V116A/L161M/F172S/S192G/C198R ECD-Fc (Fc fusion)”, in the experiment with human CD28 [1], the parental ratio of MFI amounted to 0.93 fold vs WT.

“ICOSL Y47H/N52S/V107A/F120S ECD-Fc (Fc fusion)”: the parental ratio of MFI with human CD28 [1] amounted to 0.31 fold vs WT.

B1: ICOSL ECD with N52H/N57Y/Q100R/F172S, (G4S)2-Fc fusion (Fc fusion)
chain: DTQEKEVRAMVGSDVELSCACPEGSRFDLNDVYVYWQTSESKTVVTYHIPQHSSLEYVDSRYRNRALMSPAGMLRGDFSLRLFNVTPQDEQKFHCLVLSRSLGFQEVLSVEVTLHVAANFSVPVVSAPHSPSQDELTFTCTSINGYPRPNVYWINKTDNSLLDQALQNDTVSLNMRGLYDVVSVLRIARTPSVNIGCCIENVLLQQNLTVGSQTGNDIGERDKITENPVSTGEKNAATGGGGSGGGGSEPKSSDKTHTCPPCPAPEAEGAPSVFLFPPKPKDTLMISRTPEVTCVVVDVSHEDPEVKFNWYVDGVEVHNAKTKPREEQYNSTYRVVSVLTVLHQDWLNGKEYKCKVSNKALPAPIEKTISKAKGQPREPQVYTLPPSREEMTKNQVSLTCLVKGFYPSDIAVEWESNGQPENNYKTTPPVLDSDGSFFLYSKLTVDKSRWQQGNVFSCSVMHEALHNHYTQKSLSLSPG
notes: also called ICOSCL ECD with N52H/N57Y/Q100R/F172S
For B1, the MFI came out at 110000 MFI with human CD28 [2]; 136000 MFI with human ICOS [3]; 323000 MFI with human CTLA-4 [4]; 12900 MFI with human CD28 [5]; 16000 MFI with human ICOS [6]; 8180 MFI with human CTLA-4 [7]. The values for the MFI with human CD28 [8], with human ICOS [9] and in the experiment with human CTLA-4 [10] were 14400 MFI, 12600 MFI and 8710 MFI, respectively. Moreover, the “MFI ratio to WT” value is 63.9 fold with human CD28 [2]; 1.4 fold with human ICOS [3]; 42.6 fold with human CTLA-4 [4]; 3.6 fold with human CD28 [5]; 1.4 fold in the experiment with human ICOS [6]; 0.7 fold with human CTLA-4 [7]. For the same molecule, the “MFI ratio to WT” value with human CD28 [8] amounted to 4.1 fold; with human ICOS [9] it was 1.1 fold; in the experiment with human CTLA-4 [10], 0.7 fold.

B2: ICOSL ECD with N52H/N57Y/Q100R/C198R linked to Fc C220S/L234A/L235E/G237A (Table 30D) (Fc fusion)
chain: DTQEKEVRAMVGSDVELSCACPEGSRFDLNDVYVYWQTSESKTVVTYHIPQHSSLEYVDSRYRNRALMSPAGMLRGDFSLRLFNVTPQDEQKFHCLVLSRSLGFQEVLSVEVTLHVAANFSVPVVSAPHSPSQDELTFTCTSINGYPRPNVYWINKTDNSLLDQALQNDTVFLNMRGLYDVVSVLRIARTPSVNIGCRIENVLLQQNLTVGSQTGNDIGERDKITENPVSTGEKNAATEPKSSDKTHTCPPCPAPEAEGAPSVFLFPPKPKDTLMISRTPEVTCVVVDVSHEDPEVKFNWYVDGVEVHNAKTKPREEQYNSTYRVVSVLTVLHQDWLNGKEYKCKVSNKALPAPIEKTISKAKGQPREPQVYTLPPSREEMTKNQVSLTCLVKGFYPSDIAVEWESNGQPENNYKTTPPVLDSDGSFFLYSKLTVDKSRWQQGNVFSCSVMHEALHNHYTQKSLSLSPGK
On to B2, for which the MFI with human CD28 [5] was found to be 13700 MFI; with human ICOS [6], 16700 MFI; with human CTLA-4 [7], 8720 MFI; in the experiment with human CD28 [8], 12900 MFI; in the experiment with human ICOS [9], 7700 MFI; in the experiment with human CTLA-4 [10] it was 8750 MFI.

B3: ICOSL ECD Truncation #7 with N52H/N57Y/Q100R/F172S, Fc fusion (Fc fusion)
chain: DTQEKEVRAMVGSDVELSCACPEGSRFDLNDVYVYWQTSESKTVVTYHIPQHSSLEYVDSRYRNRALMSPAGMLRGDFSLRLFNVTPQDEQKFHCLVLSRSLGFQEVLSVEVTLHVAANFSVPVVSAPHSPSQDELTFTCTSINGYPRPNVYWINKTDNSLLDQALQNDTVSLNMRGLYDVVSVLRIARTPSVNIGCCIENGGGGSGGGGSEPKSSDKTHTCPPCPAPEAEGAPSVFLFPPKPKDTLMISRTPEVTCVVVDVSHEDPEVKFNWYVDGVEVHNAKTKPREEQYNSTYRVVSVLTVLHQDWLNGKEYKCKVSNKALPAPIEKTISKAKGQPREPQVYTLPPSREEMTKNQVSLTCLVKGFYPSDIAVEWESNGQPENNYKTTPPVLDSDGSFFLYSKLTVDKSRWQQGNVFSCSVMHEALHNHYTQKSLSLSPG
Turning to B3, the MFI in the experiment with human CD28 [5] is 12000 MFI; with human ICOS [6], 7600 MFI; in the experiment with human CTLA-4 [7] it was 9670 MFI; with human CD28 [8], 13000 MFI; with human ICOS [9], 8080 MFI; in the experiment with human CTLA-4 [10] it was 9040 MFI. The “MFI ratio to WT” value with human CD28 [5] was determined as 3.4 fold; with human ICOS [6], 0.7 fold; with human CTLA-4 [7], 0.8 fold; in the experiment with human CD28 [8], 3.7 fold; with human ICOS [9], 0.7 fold; with human CTLA-4 [10], 0.7 fold.

B4: ICOSL ECD Truncation #4 with N52H/N57Y/Q100R/F172S, Fc fusion (Fc fusion)
chain: DTQEKEVRAMVGSDVELSCACPEGSRFDLNDVYVYWQTSESKTVVTYHIPQHSSLEYVDSRYRNRALMSPAGMLRGDFSLRLFNVTPQDEQKFHCLVLSRSLGFQEVLSVEVTLHVAANFSVPVVSAPHSPSQDELTFTCTSINGYPRPNVYWINKTDNSLLDQALQNDTVSLNMRGLYDVVSVLRIARTPSVNIGCCIENVLLQQNGGGGSGGGGSEPKSSDKTHTCPPCPAPEAEGAPSVFLFPPKPKDTLMISRTPEVTCVVVDVSHEDPEVKFNWYVDGVEVHNAKTKPREEQYNSTYRVVSVLTVLHQDWLNGKEYKCKVSNKALPAPIEKTISKAKGQPREPQVYTLPPSREEMTKNQVSLTCLVKGFYPSDIAVEWESNGQPENNYKTTPPVLDSDGSFFLYSKLTVDKSRWQQGNVFSCSVMHEALHNHYTQKSLSLSPG
Consider B4, for which the MFI with human CD28 [2] is 68600 MFI; with human ICOS [3], 133000 MFI; with human CTLA-4 [4], 377000 MFI; in the experiment with human CD28 [5] it was 14700 MFI; with human ICOS [6], 6890 MFI; in the experiment with human CTLA-4 [7] it was 8840 MFI. The MFI with human CD28 [8] turned out to be 12700 MFI; with human ICOS [9], 7610 MFI; in the experiment with human CTLA-4 [10], 9000 MFI. The “MFI ratio to WT” value is 39.7 fold with human CD28 [2]; 1.3 fold with human ICOS [3]; 49.8 fold with human CTLA-4 [4]; 4.1 fold in the experiment with human CD28 [5]; 0.6 fold with human ICOS [6]; 0.7 fold with human CTLA-4 [7]. The “MFI ratio to WT” value turned out to be 3.6 fold with human CD28 [8], 0.7 fold in the experiment with human ICOS [9] and 0.7 fold in the experiment with human CTLA-4 [10].

B5: ICOSL IgV with N52H/N57Y/Q100R, Fc fusion (Fc fusion)
chain: DTQEKEVRAMVGSDVELSCACPEGSRFDLNDVYVYWQTSESKTVVTYHIPQHSSLEYVDSRYRNRALMSPAGMLRGDFSLRLFNVTPQDEQKFHCLVLSRSLGFQEVLSVEVTLHVAANFSVGGGGSGGGGSEPKSSDKTHTCPPCPAPEAEGAPSVFLFPPKPKDTLMISRTPEVTCVVVDVSHEDPEVKFNWYVDGVEVHNAKTKPREEQYNSTYRVVSVLTVLHQDWLNGKEYKCKVSNKALPAPIEKTISKAKGQPREPQVYTLPPSREEMTKNQVSLTCLVKGFYPSDIAVEWESNGQPENNYKTTPPVLDSDGSFFLYSKLTVDKSRWQQGNVFSCSVMHEALHNHYTQKSLSLSPG
notes: also called ICOSCL IgV with N52H/N57Y/Q100R
Turning to B5, the MFI with human CD28 [2] was determined as 84600 MFI; in the experiment with human ICOS [3] it was 118000 MFI; with human CTLA-4 [4], 205000 MFI; with human CD28 [5] it was 16600 MFI; in the experiment with human ICOS [6], 9380 MFI; with human CTLA-4 [7], 9670 MFI. Moreover, the values for the MFI in the experiment with human CD28 [8], in the experiment with human ICOS [9] and in the experiment with human CTLA-4 [10] were 17300 MFI, 8670 MFI and 9040 MFI, respectively. Moreover, the “MFI ratio to WT” value with human CD28 [2] stood at 49 fold; with human ICOS [3] it was 1.2 fold; with human CTLA-4 [4], 27 fold; with human CD28 [5], 4.7 fold; in the experiment with human ICOS [6] it was 0.8 fold; with human CTLA-4 [7] it was 0.8 fold. Further, the figures for the “MFI ratio to WT” value with human CD28 [8], with human ICOS [9] and in the experiment with human CTLA-4 [10] were 4.9 fold, 0.7 fold and 0.7 fold, respectively.

The record behind these values is patent US20230235012A1 (ALPINE IMMUNE SCIENCES, published 2023).
